The supplement of paper PMC10567573

B1: GALNT9 (parent)
chain: FTQSGPIVSRATGRCLEVEMSKDA
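Note: lentivirally expressed fusions sorted by FACS into six bins by GFP to DsRed ratio, PSI derived from sequencing read proportions per bin multiplied by bin number.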

Variants of: B1
Assay: protein stability index of a GFP-peptide fusion (GPS, HEK-293T) (PSI 1-6); higher = more stable
Settings: c terminus: a fixed tail appended
For FTQSGPIDSRATGRCLEVEMSKDA [V8D], the protein stability index was 3.27.
Work on FTQSGPIGSRATGRCLEVEMSKDA [V8G] yielded a protein stability index of 1.96.
Variant FTQSGPINSRATGRCLEVEMSKDA [V8N] has a protein stability index of 2.03.
Work on FTQSGPIISRATGRCLEVEMSKDA [V8I] yielded a protein stability index of 2.54.
Work on FTQSGPIQSRATGRCLEVEMSKDA [V8Q] yielded a protein stability index of 2.25.
Work on FTQSGPICSRATGRCLEVEMSKDA [V8C] yielded a protein stability index of 2.04.
In the case of FTQSGPIPSRATGRCLEVEMSKDA [V8P], the protein stability index is reported as 2.07.
Variant FTQSGPITSRATGRCLEVEMSKDA [V8T] has a protein stability index of 1.42.
FTQSGPIMSRATGRCLEVEMSKDA [V8M] showed a protein stability index of 2.38.
Variant FTQSGPIRSRATGRCLEVEMSKDA [V8R] has a protein stability index of 1.83.
FTQSGPISSRATGRCLEVEMSKDA [V8S] gave a protein stability index of 3.41.
FTQSGPIHSRATGRCLEVEMSKDA [V8H] showed a protein stability index of 2.58.
Variant FTQSGPIWSRATGRCLEVEMSKDA [V8W] has a protein stability index of 3.04.
FTSSGPIVSRATGRCLEVEMSKDA [Q3S] gave a protein stability index of 2.48.
With FTHSGPIVSRATGRCLEVEMSKDA [Q3H] the protein stability index was 2.04.
In the case of FTPSGPIVSRATGRCLEVEMSKDA [Q3P], the protein stability index is reported as 1.34.
FTRSGPIVSRATGRCLEVEMSKDA [Q3R] gave a protein stability index of 1.48.
For FTGSGPIVSRATGRCLEVEMSKDA [Q3G], the protein stability index was 1.73.
FTNSGPIVSRATGRCLEVEMSKDA [Q3N] gave a protein stability index of 1.24.
With FTTSGPIVSRATGRCLEVEMSKDA [Q3T] the protein stability index was 1.94.
In the case of FTKSGPIVSRATGRCLEVEMSKDA [Q3K], the protein stability index is reported as 2.54.
FTISGPIVSRATGRCLEVEMSKDA [Q3I] gave a protein stability index of 1.58.
For FTYSGPIVSRATGRCLEVEMSKDA [Q3Y], the protein stability index was 1.73.
Variant FTMSGPIVSRATGRCLEVEMSKDA [Q3M] has a protein stability index of 3.03.
FTFSGPIVSRATGRCLEVEMSKDA [Q3F] showed a protein stability index of 2.34.
In the case of FTESGPIVSRATGRCLEVEMSKDA [Q3E], the protein stability index is reported as 2.51.
FTDSGPIVSRATGRCLEVEMSKDA [Q3D] showed a protein stability index of 1.83.
In the case of FTWSGPIVSRATGRCLEVEMSKDA [Q3W], the protein stability index is reported as 1.51.
For FTASGPIVSRATGRCLEVEMSKDA [Q3A], the protein stability index was 2.01.
In the case of FTLSGPIVSRATGRCLEVEMSKDA [Q3L], the protein stability index is reported as 1.84.
Work on FTQSGTIVSRATGRCLEVEMSKDA [P6T] yielded a protein stability index of 1.42.
FTQSGEIVSRATGRCLEVEMSKDA [P6E] showed a protein stability index of 1.85.
Work on FTQSGMIVSRATGRCLEVEMSKDA [P6M] yielded a protein stability index of 3.4.
Variant FTQSGDIVSRATGRCLEVEMSKDA [P6D] has a protein stability index of 2.08.
In the case of FTQSGCIVSRATGRCLEVEMSKDA [P6C], the protein stability index is reported as 1.72.
FTQSGNIVSRATGRCLEVEMSKDA [P6N] gave a protein stability index of 1.07.
FTQSGPNVSRATGRCLEVEMSKDA [I7N] showed a protein stability index of 2.73.
With FTQSGPSVSRATGRCLEVEMSKDA [I7S] the protein stability index was 2.52.
Work on FTQSGPDVSRATGRCLEVEMSKDA [I7D] yielded a protein stability index of 3.31.
Work on FTQSGPRVSRATGRCLEVEMSKDA [I7R] yielded a protein stability index of 2.08.
With FTQSGPHVSRATGRCLEVEMSKDA [I7H] the protein stability index was 2.66.
Work on FTQSGPMVSRATGRCLEVEMSKDA [I7M] yielded a protein stability index of 1.78.
In the case of FTQSGPLVSRATGRCLEVEMSKDA [I7L], the protein stability index is reported as 1.18.
With FTQSGPQVSRATGRCLEVEMSKDA [I7Q] the protein stability index was 1.98.
In the case of FTQSGPGVSRATGRCLEVEMSKDA [I7G], the protein stability index is reported as 1.79.
Work on FTQSGPAVSRATGRCLEVEMSKDA [I7A] yielded a protein stability index of 2.25.
Work on FTQSGPTVSRATGRCLEVEMSKDA [I7T] yielded a protein stability index of 2.36.
For FTQSGPEVSRATGRCLEVEMSKDA [I7E], the protein stability index was 2.63.
Variant FTQSGPCVSRATGRCLEVEMSKDA [I7C] has a protein stability index of 1.89.
In the case of FTQSGPPVSRATGRCLEVEMSKDA [I7P], the protein stability index is reported as 2.78.
Work on YTQSGPIVSRATGRCLEVEMSKDA [F1Y] yielded a protein stability index of 2.03.
In the case of FTQSGPIVCRATGRCLEVEMSKDA [S9C], the protein stability index is reported as 2.17.
With FTQSGPIVARATGRCLEVEMSKDA [S9A] the protein stability index was 4.78.
For FTQSFPIVSRATGRCLEVEMSKDA [G5F], the protein stability index was 2.62.
For FTQSTPIVSRATGRCLEVEMSKDA [G5T], the protein stability index was 2.46.
FTQSHPIVSRATGRCLEVEMSKDA [G5H] gave a protein stability index of 2.42.
With FTQSLPIVSRATGRCLEVEMSKDA [G5L] the protein stability index was 1.53.
For FTQSNPIVSRATGRCLEVEMSKDA [G5N], the protein stability index was 2.34.
For FTQSDPIVSRATGRCLEVEMSKDA [G5D], the protein stability index was 2.74.
With FTQSQPIVSRATGRCLEVEMSKDA [G5Q] the protein stability index was 2.37.
FTQSVPIVSRATGRCLEVEMSKDA [G5V] showed a protein stability index of 2.39.
In the case of FTQSAPIVSRATGRCLEVEMSKDA [G5A], the protein stability index is reported as 1.81.
In the case of FTQSIPIVSRATGRCLEVEMSKDA [G5I], the protein stability index is reported as 1.64.
Variant FTQSSPIVSRATGRCLEVEMSKDA [G5S] has a protein stability index of 2.54.
For FTQSRPIVSRATGRCLEVEMSKDA [G5R], the protein stability index was 1.66.
With FTQSYPIVSRATGRCLEVEMSKDA [G5Y] the protein stability index was 3.35.
Variant FTQSCPIVSRATGRCLEVEMSKDA [G5C] has a protein stability index of 2.57.
FTQHGPIVSRATGRCLEVEMSKDA [S4H] showed a protein stability index of 1.91.
FTQCGPIVSRATGRCLEVEMSKDA [S4C] showed a protein stability index of 1.48.
For FTQIGPIVSRATGRCLEVEMSKDA [S4I], the protein stability index was 3.66.
With FTQPGPIVSRATGRCLEVEMSKDA [S4P] the protein stability index was 2.
Work on FTQGGPIVSRATGRCLEVEMSKDA [S4G] yielded a protein stability index of 2.01.
For FTQAGPIVSRATGRCLEVEMSKDA [S4A], the protein stability index was 2.37.
Work on FTQTGPIVSRATGRCLEVEMSKDA [S4T] yielded a protein stability index of 2.82.
For FTQKGPIVSRATGRCLEVEMSKDA [S4K], the protein stability index was 1.88.
For FTQLGPIVSRATGRCLEVEMSKDA [S4L], the protein stability index was 2.78.
FTQQGPIVSRATGRCLEVEMSKDA [S4Q] gave a protein stability index of 2.35.
In the case of FTQEGPIVSRATGRCLEVEMSKDA [S4E], the protein stability index is reported as 2.3.
In the case of FTQYGPIVSRATGRCLEVEMSKDA [S4Y], the protein stability index is reported as 2.24.
In the case of FTQNGPIVSRATGRCLEVEMSKDA [S4N], the protein stability index is reported as 1.85.
FIQSGPIVSRATGRCLEVEMSKDA [T2I] showed a protein stability index of 2.01.
FFQSGPIVSRATGRCLEVEMSKDA [T2F] showed a protein stability index of 3.05.
In the case of FNQSGPIVSRATGRCLEVEMSKDA [T2N], the protein stability index is reported as 2.17.
FCQSGPIVSRATGRCLEVEMSKDA [T2C] gave a protein stability index of 2.96.
For FLQSGPIVSRATGRCLEVEMSKDA [T2L], the protein stability index was 2.25.
For FEQSGPIVSRATGRCLEVEMSKDA [T2E], the protein stability index was 3.58.
FDQSGPIVSRATGRCLEVEMSKDA [T2D] showed a protein stability index of 2.97.
FQQSGPIVSRATGRCLEVEMSKDA [T2Q] gave a protein stability index of 2.35.
Variant FWQSGPIVSRATGRCLEVEMSKDA [T2W] has a protein stability index of 1.43.
FAQSGPIVSRATGRCLEVEMSKDA [T2A] gave a protein stability index of 1.92.
Work on FYQSGPIVSRATGRCLEVEMSKDA [T2Y] yielded a protein stability index of 2.53.
Work on FSQSGPIVSRATGRCLEVEMSKDA [T2S] yielded a protein stability index of 2.71.
For FKQSGPIVSRATGRCLEVEMSKDA [T2K], the protein stability index was 1.72.
FRQSGPIVSRATGRCLEVEMSKDA [T2R] showed a protein stability index of 1.75.
